Results from PMC10807135 (ACS chemical biology, 2023).
Residue numbers refer to the chain shown, from its start. Names may count otherwise. Where two headings read alike, the source gives them in different places. Blank lines part the entries; values can stand above or below the binder they belong to.

How the values were obtained:
[1] = target: holo-AcpP (E. coli acyl carrier protein AcpP with phosphopantetheine) (Escherichia coli) (UniProt P0A6A8)
[2] = target: holo-AcpP (E. coli acyl carrier protein AcpP with phosphopantetheine) (Escherichia coli) (UniProt P0A6A8); remark: listed apart in the source
PltF Q438R D263K A230R = target: T1, PltF Q438R D263K A230R (Pseudomonas fluorescens, UniProt Q4KCY5 1-498, Q438R | D263K | A230R); experiment: NMR titration
T1 sequence: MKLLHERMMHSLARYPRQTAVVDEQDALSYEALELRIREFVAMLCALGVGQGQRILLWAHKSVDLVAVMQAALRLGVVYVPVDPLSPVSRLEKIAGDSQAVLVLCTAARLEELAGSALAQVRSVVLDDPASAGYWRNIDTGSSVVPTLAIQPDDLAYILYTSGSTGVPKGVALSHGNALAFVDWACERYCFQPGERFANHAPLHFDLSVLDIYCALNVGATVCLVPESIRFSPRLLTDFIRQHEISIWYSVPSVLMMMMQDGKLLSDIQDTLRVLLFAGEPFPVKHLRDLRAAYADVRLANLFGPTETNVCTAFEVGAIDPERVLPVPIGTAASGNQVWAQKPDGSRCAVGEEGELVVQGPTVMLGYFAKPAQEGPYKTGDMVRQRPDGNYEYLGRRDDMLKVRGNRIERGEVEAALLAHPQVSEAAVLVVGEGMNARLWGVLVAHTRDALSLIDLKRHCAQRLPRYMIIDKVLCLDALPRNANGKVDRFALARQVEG

turnover rate of AcpP prolylation (time course, HPLC) [1]: 0.264 AcpP h^-1
B1: PltF Q438R (enzyme)
chain: T1 sequence with R230A, K263D

turnover rate of AcpP prolylation (time course, HPLC) [2]: 1.98 AcpP h^-1
B2: PltF Q438R K472R D263N (enzyme)
chain: T1 sequence with R230A, K263N, K472R

binding result (PltF Q438R D263K A230R): binds
B3: desulfo-AcpP (15N-labelled E. coli acyl carrier protein AcpP loaded with a desulfo-PPant mimic) (natural protein, Escherichia coli)
chain: STIEERVKKIIGEQLGVKQEEVTNNASFVEDLGADSLDTVELVMALEEEFDTEIPDEEAEKITTVQAAIDYINGHQA
modifications: desulfo-phosphopantetheine (desulfo-PPant mimic) loaded onto apo-AcpP; uniform 15N labelling
